For assay [1], the system named is CCND1 and CCNE1 expression. Put plainly: CCND1 and CCNE1 expression in breast cancer cells. The class given is cell-based. To be noted: overexpression in cells (FIG. 25C). The source says: We first established stable MDA-MB-231 cell lines that express similar levels of the mutant or the wild-type full-length NPAC from cDNAs introduced with silent mutations and resistant to NPAC shRNA (data not shown). […] Thus, mutation of the LSD2-interacting residues F218, L219 and L291 of NPAC can disrupt LSD2 and NPAC functions in vivo.
We next examined if it is possible to use a small molecule to manipulate the interaction between NPAC and LSD2, thus affecting target gene expression. We have shown that a short mutant NPAC peptide (residues 214-225) can interact with LSD2 with high affinity, however, lost its cofactor activity. NPAC214-225.F217A is expected to be able to competitive inhibit the interaction between endogenous NPAC and LSD2, without stimulating LSD2 demethylase activity (FIG. 25A, right). […] Thus, unable to stimulate the histone demethylase activity of endogenous LSD2, this mutant peptide is a potent inhibitor of LSD2 function by competitively inhibiting LSD2 binding by endogenous NPAC.

Assay [2] has as its target T1, His-LSD2 (Homo sapiens, UniProt Q8NB78).
T1 construct: typically 0.5 μg full-length His-LSD2; made in house; host or cells: Sf9 insect cells
T1 sequence (Q8NB78 1-822): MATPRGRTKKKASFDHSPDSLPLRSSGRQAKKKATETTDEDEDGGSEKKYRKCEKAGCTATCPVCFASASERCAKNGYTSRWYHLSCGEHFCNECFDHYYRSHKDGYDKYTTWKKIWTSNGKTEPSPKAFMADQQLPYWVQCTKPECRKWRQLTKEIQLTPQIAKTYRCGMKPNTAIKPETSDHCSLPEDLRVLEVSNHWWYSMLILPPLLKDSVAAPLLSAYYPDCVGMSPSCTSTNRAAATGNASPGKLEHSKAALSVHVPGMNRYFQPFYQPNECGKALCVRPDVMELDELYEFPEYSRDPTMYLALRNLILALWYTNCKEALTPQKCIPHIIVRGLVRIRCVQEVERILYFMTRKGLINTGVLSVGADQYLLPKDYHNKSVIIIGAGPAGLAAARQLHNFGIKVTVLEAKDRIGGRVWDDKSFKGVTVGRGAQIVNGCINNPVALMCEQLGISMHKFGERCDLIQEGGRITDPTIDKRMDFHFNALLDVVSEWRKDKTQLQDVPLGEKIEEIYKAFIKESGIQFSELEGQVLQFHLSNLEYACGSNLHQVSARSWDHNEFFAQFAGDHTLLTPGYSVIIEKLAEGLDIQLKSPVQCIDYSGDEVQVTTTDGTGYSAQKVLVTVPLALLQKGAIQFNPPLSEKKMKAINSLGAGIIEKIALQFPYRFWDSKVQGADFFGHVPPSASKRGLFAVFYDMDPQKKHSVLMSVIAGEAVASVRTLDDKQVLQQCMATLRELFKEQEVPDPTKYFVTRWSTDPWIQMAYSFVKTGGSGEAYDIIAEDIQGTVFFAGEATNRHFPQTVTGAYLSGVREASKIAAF
Put plainly: GST-pulldown of His-LSD2 by GST-NPAC proteins. The format is binding. As to conditions: coomassie blue staining. As for the experimental part:
[…] GST or GST-NPAC fusion proteins were bound to glutathione agarose, and were incubated with 2 μg full-length His-LSD2 overnight in 50 mM NaPO4 pH 7.4, 150 mM NaCl, 0.5% NP-40, 5% glycerol, 10 μM ZnSO4, 1 mM MgCl2, 1 mM DTT, 0.1 mM PMSF at 4° C. After washed 4 times with same buffer at 4° C., glutathione agarose beads were boiled in 1×SDS sample loading buffer. Elute was resolved on a 15% SDS-PAGE gel and stained by coomassie blue.

In assay [3] the target is T1, His-LSD2. Put plainly: Nucleosome demethylation assay (NPAC cofactor activity for LSD2, immunoblot). The format is biochemical. To be noted: threshold dosage of His-LSD2; nucleosomes purified from HeLa. As for the experimental part: For nucleosome demethylation assays, typically 0.5 μg full-length His-LSD2, 1 μg NPAC protein or peptides, and 2 μg nucleosomes purified from HeLa were used, and demethylation efficiency was analyzed by SDS-PAGE electrophoresis and immunoblot using methylation specific anti-histone H3 antibodies as previously described (Shi et al. 2004).

The test system of a further assay is double strand DNA. Put plainly: DNA binding assay (GST-pulldown). As for the experimental part: 5-10 μg GST and GST-tagged NPAC truncation proteins were incubated with 1 μg linearized plasmid DNA overnight at 4° C. in 50 mM Tris pH 7.4, 200 mM NaCl, 0.2% NP-40, 1 mM MgCl2, 1 mM EDTA, 1 mM DTT, 0.02 mM ZnSO4. After extensive washing with the same buffer, bound DNA was eluted by incubating with 100 μl 10 mM Tris pH 8.0, 1% SDS for 15 minutes at 65° C. Pulldown DNA was purified using Qiagen PCR purification kit, resolved by agarose gel electrophoresis and stained with Ethidium Bromide.

Assay [4] concerns nucleosomes purified from HeLa. Put plainly: Nucleosome pulldown by GST-NPAC proteins. The format is binding. As for the experimental part:
Nucleosomes were purified from HeLa as previously described (Umlauf et al., 2004). To examine nucleosome binding selectivity of NPAC, 5 μg GST fusion protein bound to glutathione agarose were incubated with 20 μg nucleosomes overnight at 4° C. in nucleosome binding buffer (50 mM NaPO4 pH 7.4, 200 mM NaCl, 0.5% NP-40, 5% glycerol, 10 μM ZnSO4, 1 mM MgCl2, 1 mM DTT, 0.1 mM PMSF). After washing 4 times with the same buffer at 4° C., the beads were boiled in 1×SDS sample loading buffer and elute was resolved by 15% SDS-PAGE for immunoblot analysis or coomassie staining.
For free-DNA competition assays, human genomic DNA was purified from HeLa cells and fragmented to an average size around 300 bp by sonication. Equal amounts of GST-NPAC.d5 bound to glutathione beads were pre-incubated with 0, 5, 10, 25 μg genomic DNA fragments in nucleosome binding buffer for 30 minutes at room temperature, and equal amounts of nucleosomes were added and incubated overnight at 4° C. After extensive washing, GST-NPAC.d5 and bound nucleosomes were eluted by boiling in 1×SDS sample loading buffer, resolved by SDS-PAGE and stained with coomassie blue.

Ends that are not written are not given here.

For the molecule “GFP-NPAC214-225.F217A: GFP fusion of mutant NPAC peptide (residues 214-225) F217A, overexpressed in cells ({GFP}-DPHAHHFLLSQT; UniProt Q49A26 214-225, looked up, variant F217A)”, the “CCND1 and CCNE1 expression on ectopic expression of the peptide” value in assay [1] is “consistently down regulates CCND1 and CCNE1 expression”; in assay [1] (listed as NPAC.214-215.F217A peptide), “down regulates CCND1 and CCNE1 expression”.

B1: NP.d9: NP.d3 with deletion of amino acids 214-222 (protein)
chain: SERGSKSPLKRAQEQSPRKRGRPPKDEKDLTIPESSTVKGMMAGPMAAFKWQPTASEPVKDASQTEKPAVCYQAITKKLKICEEETGSTSIQ
modifications: left off: a dimerising Fc or GST; small tags and cut ends
With B1, the “LSD2 binding (GST-pulldown)” value in the assay with His-LSD2 [2] is “completely abolishes LSD2 binding”. Also, the “Cofactor activity: stimulation of LSD2 demethylation of nucleosomal H3K4me2” value in the assay with His-LSD2 [3] is reported as “but not NP.d7 or NP.d9, significantly enhances LSD2 histone demethylase activity”.

B2: NPAC.d6: Example 2 GST-NPAC truncation, residues 1-81 (protein, UniProt Q49A26 1-81, looked up, fragment)
chain: MAAVSLRLGDLVWGKLGRYPPWPGKIVNPPKDLKKPRGKKCFFVKFFGTEDHAWIKVEQLKPYHAHKEEMIKINKGKRFQQ
modifications: GST tag
On to B2, for which the “DNA binding (GST-pulldown)” value with double strand DNA is “unable to interact with DNA”. For the same molecule, in assay [4], the “Nucleosome binding (GST-pulldown)” value is listed as “failed to interact with nucleosomes”.

B3: NPAC.d2: Example 2 GST-NPAC truncation, residues 1-250 (protein, UniProt Q49A26 1-250, looked up, fragment)
chain: MAAVSLRLGDLVWGKLGRYPPWPGKIVNPPKDLKKPRGKKCFFVKFFGTEDHAWIKVEQLKPYHAHKEEMIKINKGKRFQQAVDAVEEFLRRAKGKDQTSSHNSSDDKNRRNSSEERSRPNSGDEKRKLSLSEGKVKKNMGEGKKRVSSGSSERGSKSPLKRAQEQSPRKRGRPPKDEKDLTIPESSTVKGMMAGPMAAFKWQPTASEPVKDADPHFHHFLLSQTEKPAVCYQAITKKLKICEEETGSTS
modifications: GST tag
Regarding B3, the “Nucleosome binding (GST-pulldown)” value in assay [4] was “strong binding to nucleosomes”.

B4: NPAC.d5: Example 2 GST-NPAC truncation, residues 1-120 (protein, UniProt Q49A26 1-120, looked up, fragment)
chain: MAAVSLRLGDLVWGKLGRYPPWPGKIVNPPKDLKKPRGKKCFFVKFFGTEDHAWIKVEQLKPYHAHKEEMIKINKGKRFQQAVDAVEEFLRRAKGKDQTSSHNSSDDKNRRNSSEERSRP
modifications: GST tag
Regarding B4, the “DNA binding (GST-pulldown)” value in the assay with double strand DNA was “pulls down DNA nearly as efficiently as NPAC.d1”. Further, the “Nucleosome binding (GST-pulldown)” value in assay [4] is on record as “can readily do so”. In addition, in assay [4] (0, 5, 10, 25 μg genomic DNA fragments), the “Nucleosome binding in the presence of increasing free double strand DNA” value was “compromised the nucleosome binding ability of NPAC.d5 in a dose dependent manner”.

B5: NPAC.d4: Example 2 GST-NPAC truncation, residue 181-553 (protein, UniProt Q49A26 181-553, looked up, fragment)
chain: LTIPESSTVKGMMAGPMAAFKWQPTASEPVKDADPHFHHFLLSQTEKPAVCYQAITKKLKICEEETGSTSIQAADSTAVNGSITPTDKKIGFLGLGLMGSGIVSNLLKMGHTVTVWNRTAEKCDLFIQEGARLGRTPAEVVSTCDITFACVSDPKAAKDLVLGPSGVLQGIRPGKCYVDMSTVDADTVTELAQVIVSRGGRFLEAPVSGNQQLSNDGMLVILAAGDRGLYEDCSSCFQAMGKTSFFLGEVGNAAKMMLIVNMVQGSFMATIAEGLTLAQVTGQSQQTLLDILNQGQLASIFLDQKCQNILQGNFKPDFYLKYIQKDLRLAIALGDAVNHPTPMAAAANEVYKRAKALDQSDNDMSAVYRAYIH
modifications: GST tag
For the molecule B5, the “Nucleosome binding (GST-pulldown)” value in assay [4] was “abolish the ability to interact with nucleosomes”.

B6: NP.d8: NPAC residues 188-252 (protein)
chain: TVKGMMAGPMAAFKWQPTASEPVKDADPHFHHFLLSQTEKPAVCYQAITKKLKICEEETGSTSIQ
modifications: also: fused to dimerising Fc or GST
Take B6: in the assay with His-LSD2 [2], the “LSD2 binding (GST-pulldown)” value is recorded as “sufficient for LSD2 interaction”. Moreover, the “Cofactor activity: stimulation of LSD2 demethylation of nucleosomal H3K4me2” value with His-LSD2 [3] is “significantly enhances LSD2 histone demethylase activity on nucleosomal substrates”.

B7: NPAC.d3: Example 2 GST-NPAC truncation, residue 81-553 (protein, UniProt Q49A26 81-553, looked up, fragment)
chain: QAVDAVEEFLRRAKGKDQTSSHNSSDDKNRRNSSEERSRPNSGDEKRKLSLSEGKVKKNMGEGKKRVSSGSSERGSKSPLKRAQEQSPRKRGRPPKDEKDLTIPESSTVKGMMAGPMAAFKWQPTASEPVKDADPHFHHFLLSQTEKPAVCYQAITKKLKICEEETGSTSIQAADSTAVNGSITPTDKKIGFLGLGLMGSGIVSNLLKMGHTVTVWNRTAEKCDLFIQEGARLGRTPAEVVSTCDITFACVSDPKAAKDLVLGPSGVLQGIRPGKCYVDMSTVDADTVTELAQVIVSRGGRFLEAPVSGNQQLSNDGMLVILAAGDRGLYEDCSSCFQAMGKTSFFLGEVGNAAKMMLIVNMVQGSFMATIAEGLTLAQVTGQSQQTLLDILNQGQLASIFLDQKCQNILQGNFKPDFYLKYIQKDLRLAIALGDAVNHPTPMAAAANEVYKRAKALDQSDNDMSAVYRAYIH
modifications: GST tag
Turning to B7, the “Nucleosome binding (GST-pulldown)” value in assay [4] is “abolish the ability to interact with nucleosomes”.

The values are drawn from patent US9745384B2, “Peptides useful for modulating histone demethylase function” (The Brigham and Women's Hospital, Inc., priority 2012, dated 2017).
